Measured values published in patent CN106146662A (UNIV SUN YAT SEN, dated 2016).
One block for each binder: values may come before it.

What was measured:
[1] = biological target: CD3 on Jurkat cells; test: flow cytometry, culture supernatant on Jurkat cells
[2] = biological target: T1, CD3-His蛋白(MP-5); test: BLI (Octet RED96) off-rate screen, sdAb-SASA from expression medium captured on BSA-coated biosensor, 100 nM CD3 in solution, 1:1 Langmuir model, 30°C
T1 chain: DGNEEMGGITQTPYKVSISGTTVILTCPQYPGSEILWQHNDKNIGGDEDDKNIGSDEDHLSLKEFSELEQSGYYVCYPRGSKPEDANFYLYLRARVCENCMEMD

MFI [1]: 283 MFI
koff [2]: 5.32e-05 s⁻¹
B1: C62 (VHH)
VHH: QVQLQESGGGLVQAGGSLRLSCAASGRTFSNYHMGWFRQAPGKERELVAAISGSGGSTYYTDSVKGRFTISRNNAKNTMSLQMSNLKPEDTGVYYCTTPTEKGSSIDYWGQGTQVTVSS
notes: Llama sdAb tested as sdAb-SASA protein in crude expression medium / culture supernatant; 1 nowhere in its text; also called 抗CD3单域抗体; sdAb; not shown: SASA fusion partner from the pFASEBA vector (sdAb-SASA protein)

MFI [1]: 312 MFI
koff [2]: 2.84e-05 s⁻¹
B2: C84 (VHH)
VHH: QVQLQESGGGLVQAGGYLRLSCAVSGRTFSSYAMGWFRQAPGKEREFVAAINWSGGSTYYVDSVKGRFTISRDNAKNTVYLQMNSLKPEDTAVYYCAASGLGYTIVSASEYDYWGQGTQVTVSS
notes: Llama sdAb tested as sdAb-SASA protein in crude expression medium / culture supernatant; 3 nowhere in its text; also called 抗CD3单域抗体; sdAb; not shown: SASA fusion partner from the pFASEBA vector (sdAb-SASA protein)
